Experimental data as given in US20110166062A1 (INDIANA UNIVERSITY RESEARCH AND TECHNOLOGY, published 2011).
Bridges are numbered along the chain shown (N, C = ends). Where no end group is shown, it is not given here. [ ]: non-standard residue; d: D form. Aib = CC(C)(N)C(=O)O

T1: GIP receptor (UniProt P48546 22-466)
T1 sequence (looked up): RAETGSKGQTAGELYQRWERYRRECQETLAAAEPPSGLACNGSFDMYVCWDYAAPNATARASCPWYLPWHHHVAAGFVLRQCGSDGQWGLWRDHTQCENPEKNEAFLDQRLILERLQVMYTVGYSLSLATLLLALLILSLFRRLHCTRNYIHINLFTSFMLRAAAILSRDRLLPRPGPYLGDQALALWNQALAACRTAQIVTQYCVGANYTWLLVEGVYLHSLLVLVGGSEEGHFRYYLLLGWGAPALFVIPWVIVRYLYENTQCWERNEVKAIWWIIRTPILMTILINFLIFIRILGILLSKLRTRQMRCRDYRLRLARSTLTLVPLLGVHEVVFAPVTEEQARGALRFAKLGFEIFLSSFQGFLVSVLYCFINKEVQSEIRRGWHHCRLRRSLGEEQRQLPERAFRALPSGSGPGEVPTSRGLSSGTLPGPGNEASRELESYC

B1: mt-164 (peptide)
peptide: Y[Aib]QGTFTSDYSIYLDEQAAKEFVNWLLAG-NH2
modifications: lactam 16-20; N-terminus assumed
SMILES: CC[C@H](C)[C@H](NC(=O)[C@H](CO)NC(=O)[C@H](Cc1ccc(O)cc1)NC(=O)[C@H](CC(=O)O)NC(=O)[C@H](CO)NC(=O)[C@@H](NC(=O)[C@H](Cc1ccccc1)NC(=O)[C@@H](NC(=O)CNC(=O)[C@H](CCC(N)=O)NC(=O)C(C)(C)NC(=O)[C@@H](N)Cc1ccc(O)cc1)[C@@H](C)O)[C@@H](C)O)C(=O)N[C@@H](Cc1ccc(O)cc1)C(=O)N[C@@H](CC(C)C)C(=O)N[C@@H](CC(=O)O)C(=O)N[C@H]1CCC(=O)NCCCC[C@@H](C(=O)N[C@@H](CCC(=O)O)C(=O)N[C@@H](Cc2ccccc2)C(=O)N[C@H](C(=O)N[C@@H](CC(N)=O)C(=O)N[C@@H](Cc2c[nH]c3ccccc23)C(=O)N[C@@H](CC(C)C)C(=O)N[C@@H](CC(C)C)C(=O)N[C@@H](C)C(=O)NCC(N)=O)C(C)C)NC(=O)[C@H](C)NC(=O)[C@H](C)NC(=O)[C@H](CCC(N)=O)NC1=O
B2: mt-162 (peptide)
peptide: Y[Aib]QGTFTSDYSYYLDEQAVKEFVNWLIAGGPSSGAPPPS-NH2
modifications: lactam 16-20; N-terminus assumed
SMILES: CC[C@H](C)[C@H](NC(=O)[C@H](CC(C)C)NC(=O)[C@H](Cc1c[nH]c2ccccc12)NC(=O)[C@H](CC(N)=O)NC(=O)[C@@H](NC(=O)[C@H](Cc1ccccc1)NC(=O)[C@H](CCC(=O)O)NC(=O)[C@@H]1CCCCNC(=O)CC[C@H](NC(=O)[C@H](CC(=O)O)NC(=O)[C@H](CC(C)C)NC(=O)[C@H](Cc2ccc(O)cc2)NC(=O)[C@H](Cc2ccc(O)cc2)NC(=O)[C@H](CO)NC(=O)[C@H](Cc2ccc(O)cc2)NC(=O)[C@H](CC(=O)O)NC(=O)[C@H](CO)NC(=O)[C@@H](NC(=O)[C@H](Cc2ccccc2)NC(=O)[C@@H](NC(=O)CNC(=O)[C@H](CCC(N)=O)NC(=O)C(C)(C)NC(=O)[C@@H](N)Cc2ccc(O)cc2)[C@@H](C)O)[C@@H](C)O)C(=O)N[C@@H](CCC(N)=O)C(=O)N[C@@H](C)C(=O)N[C@@H](C(C)C)C(=O)N1)C(C)C)C(=O)N[C@@H](C)C(=O)NCC(=O)NCC(=O)N1CCC[C@H]1C(=O)N[C@@H](CO)C(=O)N[C@@H](CO)C(=O)NCC(=O)N[C@@H](C)C(=O)N1CCC[C@H]1C(=O)N1CCC[C@H]1C(=O)N1CCC[C@H]1C(=O)N[C@@H](CO)C(N)=O
B3: mt-165 (peptide)
peptide: Y[Aib]QGTFTSDYSIYLDEQAAKEFVNWLLAGGPSSGAPPPSC-NH2
modifications: lactam 16-20; N-terminus assumed
SMILES: CC[C@H](C)[C@H](NC(=O)[C@H](CO)NC(=O)[C@H](Cc1ccc(O)cc1)NC(=O)[C@H](CC(=O)O)NC(=O)[C@H](CO)NC(=O)[C@@H](NC(=O)[C@H](Cc1ccccc1)NC(=O)[C@@H](NC(=O)CNC(=O)[C@H](CCC(N)=O)NC(=O)C(C)(C)NC(=O)[C@@H](N)Cc1ccc(O)cc1)[C@@H](C)O)[C@@H](C)O)C(=O)N[C@@H](Cc1ccc(O)cc1)C(=O)N[C@@H](CC(C)C)C(=O)N[C@@H](CC(=O)O)C(=O)N[C@H]1CCC(=O)NCCCC[C@@H](C(=O)N[C@@H](CCC(=O)O)C(=O)N[C@@H](Cc2ccccc2)C(=O)N[C@H](C(=O)N[C@@H](CC(N)=O)C(=O)N[C@@H](Cc2c[nH]c3ccccc23)C(=O)N[C@@H](CC(C)C)C(=O)N[C@@H](CC(C)C)C(=O)N[C@@H](C)C(=O)NCC(=O)NCC(=O)N2CCC[C@H]2C(=O)N[C@@H](CO)C(=O)N[C@@H](CO)C(=O)NCC(=O)N[C@@H](C)C(=O)N2CCC[C@H]2C(=O)N2CCC[C@H]2C(=O)N2CCC[C@H]2C(=O)N[C@@H](CO)C(=O)N[C@@H](CS)C(N)=O)C(C)C)NC(=O)[C@H](C)NC(=O)[C@H](C)NC(=O)[C@H](CCC(N)=O)NC1=O
B4: mt-163 (peptide)
peptide: YSQGTFTSDYSIYLDEQAAKEFVNWLLAG-NH2
modifications: lactam 16-20; N-terminus assumed
SMILES: CC[C@H](C)[C@H](NC(=O)[C@H](CO)NC(=O)[C@H](Cc1ccc(O)cc1)NC(=O)[C@H](CC(=O)O)NC(=O)[C@H](CO)NC(=O)[C@@H](NC(=O)[C@H](Cc1ccccc1)NC(=O)[C@@H](NC(=O)CNC(=O)[C@H](CCC(N)=O)NC(=O)[C@H](CO)NC(=O)[C@@H](N)Cc1ccc(O)cc1)[C@@H](C)O)[C@@H](C)O)C(=O)N[C@@H](Cc1ccc(O)cc1)C(=O)N[C@@H](CC(C)C)C(=O)N[C@@H](CC(=O)O)C(=O)N[C@H]1CCC(=O)NCCCC[C@@H](C(=O)N[C@@H](CCC(=O)O)C(=O)N[C@@H](Cc2ccccc2)C(=O)N[C@H](C(=O)N[C@@H](CC(N)=O)C(=O)N[C@@H](Cc2c[nH]c3ccccc23)C(=O)N[C@@H](CC(C)C)C(=O)N[C@@H](CC(C)C)C(=O)N[C@@H](C)C(=O)NCC(N)=O)C(C)C)NC(=O)[C@H](C)NC(=O)[C@H](C)NC(=O)[C@H](CCC(N)=O)NC1=O
B5: mt-158 (peptide)
peptide: Y[Aib]QGTFTSDYSIYLDEQAAKEFVCWLLAGGPSSGAPPPS-NH2
modifications: lactam 16-20; N-terminus assumed
SMILES: CC[C@H](C)[C@H](NC(=O)[C@H](CO)NC(=O)[C@H](Cc1ccc(O)cc1)NC(=O)[C@H](CC(=O)O)NC(=O)[C@H](CO)NC(=O)[C@@H](NC(=O)[C@H](Cc1ccccc1)NC(=O)[C@@H](NC(=O)CNC(=O)[C@H](CCC(N)=O)NC(=O)C(C)(C)NC(=O)[C@@H](N)Cc1ccc(O)cc1)[C@@H](C)O)[C@@H](C)O)C(=O)N[C@@H](Cc1ccc(O)cc1)C(=O)N[C@@H](CC(C)C)C(=O)N[C@@H](CC(=O)O)C(=O)N[C@H]1CCC(=O)NCCCC[C@@H](C(=O)N[C@@H](CCC(=O)O)C(=O)N[C@@H](Cc2ccccc2)C(=O)N[C@H](C(=O)N[C@@H](CS)C(=O)N[C@@H](Cc2c[nH]c3ccccc23)C(=O)N[C@@H](CC(C)C)C(=O)N[C@@H](CC(C)C)C(=O)N[C@@H](C)C(=O)NCC(=O)NCC(=O)N2CCC[C@H]2C(=O)N[C@@H](CO)C(=O)N[C@@H](CO)C(=O)NCC(=O)N[C@@H](C)C(=O)N2CCC[C@H]2C(=O)N2CCC[C@H]2C(=O)N2CCC[C@H]2C(=O)N[C@@H](CO)C(N)=O)C(C)C)NC(=O)[C@H](C)NC(=O)[C@H](C)NC(=O)[C@H](CCC(N)=O)NC1=O
B6: mt-166 (peptide)
peptide: Y[dA]QGTFTSDYSIYLDEQAAKEFVNWLLAGGPSSGAPPPSC-NH2
modifications: lactam 16-20; N-terminus assumed
SMILES: CC[C@H](C)[C@H](NC(=O)[C@H](CO)NC(=O)[C@H](Cc1ccc(O)cc1)NC(=O)[C@H](CC(=O)O)NC(=O)[C@H](CO)NC(=O)[C@@H](NC(=O)[C@H](Cc1ccccc1)NC(=O)[C@@H](NC(=O)CNC(=O)[C@H](CCC(N)=O)NC(=O)[C@@H](C)NC(=O)[C@@H](N)Cc1ccc(O)cc1)[C@@H](C)O)[C@@H](C)O)C(=O)N[C@@H](Cc1ccc(O)cc1)C(=O)N[C@@H](CC(C)C)C(=O)N[C@@H](CC(=O)O)C(=O)N[C@H]1CCC(=O)NCCCC[C@@H](C(=O)N[C@@H](CCC(=O)O)C(=O)N[C@@H](Cc2ccccc2)C(=O)N[C@H](C(=O)N[C@@H](CC(N)=O)C(=O)N[C@@H](Cc2c[nH]c3ccccc23)C(=O)N[C@@H](CC(C)C)C(=O)N[C@@H](CC(C)C)C(=O)N[C@@H](C)C(=O)NCC(=O)NCC(=O)N2CCC[C@H]2C(=O)N[C@@H](CO)C(=O)N[C@@H](CO)C(=O)NCC(=O)N[C@@H](C)C(=O)N2CCC[C@H]2C(=O)N2CCC[C@H]2C(=O)N2CCC[C@H]2C(=O)N[C@@H](CO)C(=O)N[C@@H](CS)C(N)=O)C(C)C)NC(=O)[C@H](C)NC(=O)[C@H](C)NC(=O)[C@H](CCC(N)=O)NC1=O

Each binder was assayed against glucagon receptor (UniProt P47871 26-477, limits assumed) (assay: cell-based or functional assay).
Sequence of glucagon receptor (P47871 26-477 limits assumed): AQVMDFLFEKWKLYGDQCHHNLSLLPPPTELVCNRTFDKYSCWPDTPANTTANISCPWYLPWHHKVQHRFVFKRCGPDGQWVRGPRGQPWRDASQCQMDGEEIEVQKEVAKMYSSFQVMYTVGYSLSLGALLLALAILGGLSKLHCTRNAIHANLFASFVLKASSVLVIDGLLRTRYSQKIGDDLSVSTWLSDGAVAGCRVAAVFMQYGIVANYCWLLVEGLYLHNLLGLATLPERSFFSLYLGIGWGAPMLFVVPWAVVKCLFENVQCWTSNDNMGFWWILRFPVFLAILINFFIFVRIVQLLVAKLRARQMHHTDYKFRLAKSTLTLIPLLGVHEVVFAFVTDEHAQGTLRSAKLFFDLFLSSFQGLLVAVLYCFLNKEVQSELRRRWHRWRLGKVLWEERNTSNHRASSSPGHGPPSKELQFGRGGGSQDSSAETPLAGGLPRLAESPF
With B1 the “EC50” value was 151 pM and the relative activity was 110%. For B2, the “EC50” value was 7000 pM and the relative activity was 0.97%. B3 was tested, and the “EC50” value was 489 pM and the relative activity was 18.8%. With B4 the “EC50” value was 27 pM and the relative activity was 252%. In the case of B5, the “EC50” value is reported as 1050 pM and the relative activity is reported as 14.9%. For B6, the “EC50” value was 875 pM and the relative activity was 9.83%.

These binders were tested against GLP-1 receptor (UniProt P43220 24-463, limits assumed) (assay: cell-based or functional assay).
For B1, the “EC50” value was 46 pM and the relative activity was 56.5%. For B2, the “EC50” value was 11 pM and the relative activity was 109%. For B3, the “EC50” value was 23 pM and the relative activity was 148%. With B4 the “EC50” value was 40 pM and the relative activity was 30%. In the case of B5, the “EC50” value is reported as 34 pM and the relative activity is reported as 103%. In the case of B6, the “EC50” value is reported as 134 pM and the relative activity is reported as 26.9%.

Each binder was assayed against T1, GIP receptor (assay: cell-based or functional assay).
B1 was tested, and the “EC50” value was 164 pM and the relative activity was 16.5%. In the case of B2, the “EC50” value is reported as 136 pM and the relative activity is reported as 25.7%. In the case of B3, the “EC50” value is reported as 74 pM and the relative activity is reported as 27%. With B4 the “EC50” value was 740 pM and the relative activity was 4.73%. With B5 the “EC50” value was 174 pM and the relative activity was 17.8%. In the case of B6, the “EC50” value is reported as 320 pM and the relative activity is reported as 5.94%.
